What was measured:
Assay in all cases: ELISA, growth factor coated at 10 μg/ml, antibody at 10 μg/ml, mean of duplicates
[1] = target: BMP-2 (R&D Systems 355-BEC/CF) (UniProt P12643)
[2] = target: BMP-5 (R&D Systems 615-BM) (UniProt P22003)
[3] = target: BMP-6 (R&D Systems 507-BP) (UniProt P22004)
[4] = target: BMP-7 (R&D Systems 354-BP) (UniProt P18075)
[5] = target: IGF-1 (R&D Systems 291-G1) (UniProt P05019)
[6] = target: TGF-a (R&D Systems 239-A) (UniProt P01135)
[7] = target: TGF-b1 (Peprotech 100-21R) (UniProt P01137)
UniProt P01137, sequence (P01137 279-390 limits assumed): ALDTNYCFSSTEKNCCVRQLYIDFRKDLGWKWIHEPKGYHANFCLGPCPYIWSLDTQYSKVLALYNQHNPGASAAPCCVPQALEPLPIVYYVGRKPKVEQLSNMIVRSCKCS

[8] = target: TGF-b2 (Peprotech 100-35) (UniProt P61812)
UniProt P61812, sequence (P61812 303-414 limits assumed): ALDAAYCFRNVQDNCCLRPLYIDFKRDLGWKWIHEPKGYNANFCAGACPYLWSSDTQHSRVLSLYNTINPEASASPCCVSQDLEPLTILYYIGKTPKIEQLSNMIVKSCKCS

[9] = target: 激活蛋白A (R&D Systems 338-AC) (UniProt P08476)
UniProt P08476, sequence (P08476 311-426 limits assumed): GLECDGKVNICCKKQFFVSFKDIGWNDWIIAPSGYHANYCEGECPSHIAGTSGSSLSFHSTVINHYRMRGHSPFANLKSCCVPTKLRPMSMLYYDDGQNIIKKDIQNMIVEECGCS

[10] = target: 激活蛋白B (R&D Systems 659-AB) (UniProt P09529)
UniProt P09529, sequence (P09529 293-407 limits assumed): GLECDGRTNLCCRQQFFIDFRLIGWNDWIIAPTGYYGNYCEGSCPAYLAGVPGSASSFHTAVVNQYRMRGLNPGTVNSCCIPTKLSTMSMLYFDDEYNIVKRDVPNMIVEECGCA

[11] = target: 重组人GDF-11(Peprotech公司，目录号120-11) (human) (UniProt O95390)
UniProt O95390, sequence (O95390 299-407 limits assumed): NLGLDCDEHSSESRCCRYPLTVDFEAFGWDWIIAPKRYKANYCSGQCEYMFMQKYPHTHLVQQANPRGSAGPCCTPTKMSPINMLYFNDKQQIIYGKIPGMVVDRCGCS

[12] = target: 重组小鼠肌肉生长抑素(R&D systems，目录号788-G8/CF) (mouse) (UniProt O08689)
UniProt O08689, sequence (O08689 268-376): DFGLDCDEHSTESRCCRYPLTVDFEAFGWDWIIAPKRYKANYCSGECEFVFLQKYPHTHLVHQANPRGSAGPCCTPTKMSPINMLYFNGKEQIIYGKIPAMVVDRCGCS

UniProt P22004, sequence (P22004 382-513 limits assumed): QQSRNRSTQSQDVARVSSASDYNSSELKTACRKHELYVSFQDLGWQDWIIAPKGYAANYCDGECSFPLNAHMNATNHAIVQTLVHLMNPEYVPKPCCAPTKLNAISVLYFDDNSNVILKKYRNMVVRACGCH
UniProt P12643, sequence (P12643 283-396 limits assumed): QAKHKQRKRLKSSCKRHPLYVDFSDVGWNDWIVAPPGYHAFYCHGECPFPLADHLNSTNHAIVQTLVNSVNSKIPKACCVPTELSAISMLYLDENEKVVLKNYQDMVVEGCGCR
UniProt P05019, sequence (P05019 49-118 limits assumed): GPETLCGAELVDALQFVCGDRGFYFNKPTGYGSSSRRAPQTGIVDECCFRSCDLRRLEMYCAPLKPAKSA
UniProt P01135, sequence (P01135 40-89 limits assumed): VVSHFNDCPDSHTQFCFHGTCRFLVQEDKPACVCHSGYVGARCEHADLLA
UniProt P22003, sequence (P22003 317-454 limits assumed): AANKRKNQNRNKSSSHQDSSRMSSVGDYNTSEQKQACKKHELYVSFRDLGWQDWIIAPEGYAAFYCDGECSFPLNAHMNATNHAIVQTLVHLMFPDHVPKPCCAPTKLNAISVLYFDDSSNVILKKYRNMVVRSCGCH
UniProt P18075, sequence (P18075 293-431 limits assumed): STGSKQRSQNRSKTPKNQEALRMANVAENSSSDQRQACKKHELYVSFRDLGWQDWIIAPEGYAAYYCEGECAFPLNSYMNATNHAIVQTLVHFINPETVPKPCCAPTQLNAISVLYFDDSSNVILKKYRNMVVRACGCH

多克隆抗肌肉生长抑素抗体(R&D Systems，目录号AF788) (antibody)
平均吸光度 (OD 490 nm) [1]: 0.0525 OD 490 nm | 平均吸光度 (OD 490 nm) [2]: 0.038 OD 490 nm | 平均吸光度 (OD 490 nm) [3]: 0.0745 OD 490 nm | 平均吸光度 (OD 490 nm) [4]: 0.042 OD 490 nm | 平均吸光度 (OD 490 nm) [5]: 0.045 OD 490 nm | 平均吸光度 (OD 490 nm) [6]: 0.0445 OD 490 nm | 平均吸光度 (OD 490 nm) [7]: 0.0425 OD 490 nm | 平均吸光度 (OD 490 nm) [8]: 0.0525 OD 490 nm | 平均吸光度 (OD 490 nm) [9]: 0.049 OD 490 nm | 平均吸光度 (OD 490 nm) [10]: 0.0485 OD 490 nm | 平均吸光度 (OD 490 nm) [11]: 2.62 OD 490 nm | 平均吸光度 (OD 490 nm) [12]: 2.94 OD 490 nm

Reference: CN1934266A
